The target of data set [1] is SpeMreB5 T160A (Spiroplasma eriocheiris). As to the kind of experiment: sedimentation assay (ultracentrifugation of polymers, SDS-PAGE of pellet and supernatant); buffer S (20 mM Tris-HCl pH 8.0, 1 M NaCl, 200 mM L-arginine-HCl pH 8.0, 5 mM DTT, 2 mM MgCl2, 2 mM ATP), 1 h, 436 000 x g for 120 min at 23°C; bulk critical concentration = x-intercept of the linear fit of pellet against total concentration.

The target of data set [2] is SpeMreB5 D162S (Spiroplasma eriocheiris). The description is as above.
For data set [3], the target named is SpeMreB5 T160K (Spiroplasma eriocheiris). Described as above.
Data set [4] addresses T1, SpeMreB5 (Spiroplasma eriocheiris, UniProt A0A0H3XIQ3).
T1 construct: gene mreB5; full length, 6xHis fusion, E. coli expressed, purified as monomer
T1 sequence (A0A0H3XIQ3 1-350): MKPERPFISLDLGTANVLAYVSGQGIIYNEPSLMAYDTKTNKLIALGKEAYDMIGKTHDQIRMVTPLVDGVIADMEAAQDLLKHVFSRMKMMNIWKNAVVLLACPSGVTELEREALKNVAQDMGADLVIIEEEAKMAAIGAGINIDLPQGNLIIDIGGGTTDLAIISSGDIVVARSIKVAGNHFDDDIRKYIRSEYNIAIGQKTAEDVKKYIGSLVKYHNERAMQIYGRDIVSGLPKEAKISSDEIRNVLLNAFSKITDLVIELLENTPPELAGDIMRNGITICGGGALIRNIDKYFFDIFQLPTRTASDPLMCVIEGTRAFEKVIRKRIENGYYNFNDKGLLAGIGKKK
As to the kind of experiment: Pi release assay (MESG coupled, A360). It is filed as biochemical. As to conditions: 2 mM ATP, 2 mM MgCl2, pH 7.5, 100 mM KCl, about 25 °C.

Data set [5] addresses Spiroplasma eriocheiris MreB3 wild-type (Spiroplasma eriocheiris). As to the kind of experiment: sedimentation assay (ultracentrifugation of polymers, SDS-PAGE of pellet and supernatant); buffer S (20 mM Tris-HCl pH 8.0, 1 M NaCl, 200 mM L-arginine-HCl pH 8.0, 5 mM DTT, 2 mM MgCl2, 2 mM ATP), 1 h, 436 000 x g for 120 min at 23°C; bulk critical concentration = x-intercept of the linear fit of pellet against total concentration.

Data set [6] addresses Spiroplasma eriocheiris MreB5 wild-type (Spiroplasma eriocheiris). As to the kind of experiment: sedimentation assay (ultracentrifugation of polymers, SDS-PAGE of pellet and supernatant); buffer S with Mg-ADP instead of Mg-ATP; bulk critical concentration = x-intercept of the linear fit.
Data set [7] has the same target. As to the kind of experiment: sedimentation assay (ultracentrifugation of polymers, SDS-PAGE of pellet and supernatant); buffer S with Mg-AMPPNP instead of Mg-ATP; bulk critical concentration = x-intercept of the linear fit.
For data set [8] the target is unchanged. As to the kind of experiment: sedimentation assay (ultracentrifugation of polymers, SDS-PAGE of pellet and supernatant); buffer S (20 mM Tris-HCl pH 8.0, 1 M NaCl, 200 mM L-arginine-HCl pH 8.0, 5 mM DTT, 2 mM MgCl2, 2 mM ATP), 1 h, 436 000 x g for 120 min at 23°C; bulk critical concentration = x-intercept of the linear fit of pellet against total concentration.

Data set [9] deals with the molecule itself. As to the kind of experiment: negative-staining electron microscopy; polymerized 3 h at room temperature in standard buffer (20 mM Tris-HCl pH 7.5, 100 mM KCl, 5 mM DTT) with 2 mM MgCl2 and 2 mM ATP; 10 µM SpeMreB3, 5 µM SpeMreB5, diluted to 3 µM before the grid.
Data set [10] deals with the molecule itself. As to the kind of experiment: sedimentation assay (ultracentrifugation of polymers, SDS-PAGE of pellet and supernatant); buffer S (20 mM Tris-HCl pH 8.0, 1 M NaCl, 200 mM L-arginine-HCl pH 8.0, 5 mM DTT, 2 mM MgCl2, 2 mM ATP), 1 h, 436 000 x g for 120 min at 23°C; bulk critical concentration = x-intercept of the linear fit of pellet against total concentration.

The text below walks through data of paper PMC9597168, “ATP-dependent polymerization dynamics of bacterial actin proteins involved in Spiroplasma swimming” (Open Biology, 2022).

Take “SpeMreB5 T160A (from UniProt A0A0H3XIQ3 1-350) (natural protein)”: the critical concentration (CC) in data set [1] amounted to 0.15 µM.

Molecule “SpeMreB5 D162S (from UniProt A0A0H3XIQ3 1-350) (natural protein)” returned a critical concentration (CC) in [2] of 0.07 µM.

The molecule “SpeMreB5 T160K (from UniProt A0A0H3XIQ3 1-350) (natural protein)” had a critical concentration (CC) in data set [3] of 0 µM.

Consider `Nc1ncnc2c1ncn2[C@@H]1O[C@H](COP(=O)(O)OP(=O)(O)OP(=O)(O)O)[C@@H](O)[C@H]1O` [ATP], for which the “Pi release assay (MESG coupled, A360)” value in [4] is “SpeMreB5 hydrolysed ATP and released Pi over time”.

Turning to “Spiroplasma eriocheiris MreB3 wild-type (from UniProt A0A0H3XJK5 1-352) (natural protein)”, the critical concentration (CC) in data set [5] is 2.8 µM.

In the case of “Spiroplasma eriocheiris MreB5 wild-type (from UniProt A0A0H3XIQ3 1-350) (natural protein)”, the figures for the critical concentration (CC) in data set [6], in data set [7] and in data set [8] were 0.39 µM, 0.29 µM and 0.14 µM, respectively.

B1: SpeMreB3 S176D (natural protein)
chain: MTITDVLKNTFNISPKPPRKFIAIDLGTTNSIAYIGGRGIIYNEASVMAYETGTKKLVALGEDARKLIGKTHDKIEIYTPLRNGAITDLRIAEEFIQHIGNRAKVQDVWKGSIVLIACPKSVTELERRAMVEMCKHLGADLVQVEEDTLMAALGAGANIFAPKGTFILDIGGGKTDAGIISAGGIVVSKSIKIAGNYIDEEILKYIRAKHTISIGVVTAEQIKKQIGSLYKGKETKKMVIFGRDVVTGMPKETEILDSEIRKLLISIFSSITQLVTDILESTPAELAGDAVMNGLLVSGGCAQISGLKEFLESYFQIPVKIAKNPQTAVIDGCIAYEKEIRDRLIEENKKNK
For the molecule B1, the binding result in data set [9] is “binds”.

B2: SpeMreB3 K174T/S176D (natural protein)
chain: MTITDVLKNTFNISPKPPRKFIAIDLGTTNSIAYIGGRGIIYNEASVMAYETGTKKLVALGEDARKLIGKTHDKIEIYTPLRNGAITDLRIAEEFIQHIGNRAKVQDVWKGSIVLIACPKSVTELERRAMVEMCKHLGADLVQVEEDTLMAALGAGANIFAPKGTFILDIGGGTTDAGIISAGGIVVSKSIKIAGNYIDEEILKYIRAKHTISIGVVTAEQIKKQIGSLYKGKETKKMVIFGRDVVTGMPKETEILDSEIRKLLISIFSSITQLVTDILESTPAELAGDAVMNGLLVSGGCAQISGLKEFLESYFQIPVKIAKNPQTAVIDGCIAYEKEIRDRLIEENKKNK
Regarding B2, in [10], the “critical concentration (CC)” value was found to be 2.15 µM.

B3: SpeMreB3 K174T (natural protein)
chain: MTITDVLKNTFNISPKPPRKFIAIDLGTTNSIAYIGGRGIIYNEASVMAYETGTKKLVALGEDARKLIGKTHDKIEIYTPLRNGAITDLRIAEEFIQHIGNRAKVQDVWKGSIVLIACPKSVTELERRAMVEMCKHLGADLVQVEEDTLMAALGAGANIFAPKGTFILDIGGGTTSAGIISAGGIVVSKSIKIAGNYIDEEILKYIRAKHTISIGVVTAEQIKKQIGSLYKGKETKKMVIFGRDVVTGMPKETEILDSEIRKLLISIFSSITQLVTDILESTPAELAGDAVMNGLLVSGGCAQISGLKEFLESYFQIPVKIAKNPQTAVIDGCIAYEKEIRDRLIEENKKNK
With B3, in [10], the “critical concentration (CC)” value was determined as 2.2 µM.

B4: SpeMreB3 D147E (natural protein)
chain: MTITDVLKNTFNISPKPPRKFIAIDLGTTNSIAYIGGRGIIYNEASVMAYETGTKKLVALGEDARKLIGKTHDKIEIYTPLRNGAITDLRIAEEFIQHIGNRAKVQDVWKGSIVLIACPKSVTELERRAMVEMCKHLGADLVQVEEETLMAALGAGANIFAPKGTFILDIGGGKTSAGIISAGGIVVSKSIKIAGNYIDEEILKYIRAKHTISIGVVTAEQIKKQIGSLYKGKETKKMVIFGRDVVTGMPKETEILDSEIRKLLISIFSSITQLVTDILESTPAELAGDAVMNGLLVSGGCAQISGLKEFLESYFQIPVKIAKNPQTAVIDGCIAYEKEIRDRLIEENKKNK
For B4, in data set [10], the “critical concentration (CC)” value is 1.26 µM.
